± gives the uncertainty stated by the source.
B1: Homeobox protein cut-like 1, residues 548 to 629; numbered along this chain, P39880 (parent)
chain: GEEMDTAEIARQVKEQLIKHNIGQRIFGHYVLGLSQGSVSEILARPKPWNKLTVRGKEPFHKMKQFLSDEQNILALRSIQGR

Variants of: B1
Assay: abundance fitness (aPCA) (normalised: wild type 0, dead -1); higher = more abundant; growth selection in yeast, the domain comes from the species named
Conditions: Homo sapiens
Work on A10I yielded an abundance fitness of -0.249 ± 0.068. Work on A10Y yielded an abundance fitness of -0.863 ± 0.18. Work on A10M yielded an abundance fitness of -0.947 ± 0.094. Variant A10R has an abundance fitness of -0.792 ± 0.038. Variant A10Q has an abundance fitness of -0.798 ± 0.066. Work on A10D yielded an abundance fitness of -0.835 ± 0.099. With R25M the abundance fitness was -0.079 ± 0.037. R25H showed an abundance fitness of 0.059 ± 0.057. With R25I the abundance fitness was -0.122 ± 0.052. R25L showed an abundance fitness of -0.192 ± 0.032. N21R gave an abundance fitness of -0.115 ± 0.023. Work on N21A yielded an abundance fitness of -0.151 ± 0.027. With N21D the abundance fitness was -0.03 ± 0.05. F27W gave an abundance fitness of -0.572 ± 0.044. Variant F27I has an abundance fitness of -0.8 ± 0.17. F27A gave an abundance fitness of -1.01 ± 0.057. In the case of F27Q, the abundance fitness is reported as -0.747 ± 0.073. Variant F27E has an abundance fitness of -0.906 ± 0.055. For L67R, the abundance fitness was -0.979 ± 0.057. Work on L67W yielded an abundance fitness of -0.817 ± 0.063. L67K showed an abundance fitness of -0.918 ± 0.081. Variant L67F has an abundance fitness of -0.341 ± 0.091. L67M gave an abundance fitness of -0.284 ± 0.045. Q36M showed an abundance fitness of -0.104 ± 0.036. For Q36E, the abundance fitness was 0.055 ± 0.029. Work on Q36D yielded an abundance fitness of 0.056 ± 0.045. For Q36I, the abundance fitness was -0.059 ± 0.053. With Q36H the abundance fitness was -0.017 ± 0.069. With R45Q the abundance fitness was -0.021 ± 0.035. For R45G, the abundance fitness was -0.296 ± 0.026. R45Y showed an abundance fitness of -0.085 ± 0.056. For R45I, the abundance fitness was -0.361 ± 0.083. R45A showed an abundance fitness of 0.03 ± 0.029. With R45L the abundance fitness was -0.274 ± 0.034. For V39P, the abundance fitness was -0.642 ± 0.055. S35K showed an abundance fitness of -0.035 ± 0.033. In the case of S35G, the abundance fitness is reported as -0.039 ± 0.024. In the case of S35H, the abundance fitness is reported as -0.238 ± 0.052. With S35Q the abundance fitness was -0.029 ± 0.032. S35A gave an abundance fitness of -0.112 ± 0.027. Variant S35V has an abundance fitness of -0.236 ± 0.031. Variant S35M has an abundance fitness of -0.278 ± 0.038. S35D gave an abundance fitness of 0.154 ± 0.045. With M63P the abundance fitness was -0.797 ± 0.076. With M63F the abundance fitness was -0.753 ± 0.16. Variant S68H has an abundance fitness of -0.292 ± 0.061. With S68Q the abundance fitness was -0.049 ± 0.038. Variant A44G has an abundance fitness of -0.038 ± 0.024. With A44N the abundance fitness was 0.073 ± 0.073. For A44R, the abundance fitness was -0.106 ± 0.026. For A44D, the abundance fitness was 0.056 ± 0.041. With A44Q the abundance fitness was 0.053 ± 0.038. A44S showed an abundance fitness of 0.034 ± 0.032. A44F gave an abundance fitness of -0.082 ± 0.052. Variant A44L has an abundance fitness of -0.027 ± 0.031. In the case of Q80W, the abundance fitness is reported as -0.307 ± 0.037. In the case of Q80F, the abundance fitness is reported as -0.278 ± 0.062. With Q80V the abundance fitness was 0 ± 0.03. For Q80E, the abundance fitness was 0 ± 0.037. In the case of Q80G, the abundance fitness is reported as -0.06 ± 0.027. With Y30N the abundance fitness was -0.282 ± 0.058. Y30Q showed an abundance fitness of -0.099 ± 0.036. Work on K51E yielded an abundance fitness of 0.063 ± 0.063. In the case of K51F, the abundance fitness is reported as -0.098 ± 0.097. For K51S, the abundance fitness was 0.006 ± 0.053. K51H gave an abundance fitness of -0.075 ± 0.12. T6P showed an abundance fitness of -0.385 ± 0.039. With T6Y the abundance fitness was -0.901 ± 0.13. T6E showed an abundance fitness of -0.921 ± 0.058. With T6K the abundance fitness was -0.81 ± 0.074. Work on T6M yielded an abundance fitness of -1.01 ± 0.097. H29N gave an abundance fitness of -0.012 ± 0.054. Work on H29P yielded an abundance fitness of -0.621 ± 0.065. H29T gave an abundance fitness of -0.022 ± 0.038. H29W gave an abundance fitness of -0.102 ± 0.031. Variant H29S has an abundance fitness of -0.081 ± 0.033. With H29E the abundance fitness was 0.06 ± 0.031. In the case of H29F, the abundance fitness is reported as -0.15 ± 0.065. For K64H, the abundance fitness was -0.216 ± 0.059. Variant K64L has an abundance fitness of -0.064 ± 0.032. K64E showed an abundance fitness of -0.167 ± 0.03. For I22N, the abundance fitness was -0.701 ± 0.12. For I22L, the abundance fitness was -0.239 ± 0.032. Variant I22K has an abundance fitness of -0.931 ± 0.084.

Source: the Human Domainome abundance scans (Beltran et al. 2025)
